Data: US20240084005A1 (ALLAKOS, published 2024)

How the values were obtained:
Siglec-6 ECD Fc protein = molecular target: T1, Siglec-6 ECD Fc protein (human, UniProt O43699 27-347); assay: BLI (Octet Red 384), bivalent IgG on immobilized Siglec-6 ECD Fc
T1 construct: also called Siglec-6 full ECD fused to a human Fc; not shown: human Fc
Description: Bivalent binding affinities of IgG for Siglec-6 mAbs were measured by biolayer interferometry using a FortéBio Octet Red 384 instrument using immobilized Siglec-6 ECD Fc protein.

[1] = molecular target: T2, Siglec-6 domains 1 and 2 fused to a human Fc (human, UniProt O43699 27-237); assay: ELISA on Siglec-6 domain-human Fc fusions (Domain Mapping = 3)
T2 construct: also called domains 1 and 2 fusion protein; not shown: human Fc
T2 sequence (O43699 27-237 limits assumed): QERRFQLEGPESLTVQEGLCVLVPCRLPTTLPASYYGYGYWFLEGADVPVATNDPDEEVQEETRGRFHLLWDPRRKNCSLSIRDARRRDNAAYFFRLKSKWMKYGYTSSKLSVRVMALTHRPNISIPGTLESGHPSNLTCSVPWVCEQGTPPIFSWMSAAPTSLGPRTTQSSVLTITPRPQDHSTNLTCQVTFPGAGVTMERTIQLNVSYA
Description: (§1) Domain mapping was assessed by ELISA using recombinantly expressed Siglec-6 extracellular domains fused to a human Fc containing the full ECD, domains 1 and 2, or domain 1. Siglec-6 mAbs were tested for binding to each of these domain fusion proteins and assigned domains based on their specific binding properties. Siglec-6 mAbs that bound to all three fusion proteins were assigned domain 1 binders, mAbs that bound to full ECD and domains 1 and 2 were assigned domain 2 binders, and mAbs that bound to only the full ECD protein were assigned domain 3 binders.

[2] = molecular target: T3, Siglec-6 domain 1 fused to a human Fc (human, UniProt O43699 27-147); assay: as above
T3 construct: also called domain 1 fusion protein; not shown: human Fc
T3 sequence (O43699 27-147 limits assumed): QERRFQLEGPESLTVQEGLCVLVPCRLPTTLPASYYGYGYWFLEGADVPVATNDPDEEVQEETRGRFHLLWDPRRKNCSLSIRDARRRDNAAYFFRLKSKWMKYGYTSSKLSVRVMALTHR
Description: as §1

[3] = molecular target: Siglec-6 (antigen of Example 8) (human, UniProt O43699 27-347, limits assumed); assay: BLI, monovalent Fab
Siglec-6 (antigen of Example 8), sequence (O43699 27-347 limits assumed): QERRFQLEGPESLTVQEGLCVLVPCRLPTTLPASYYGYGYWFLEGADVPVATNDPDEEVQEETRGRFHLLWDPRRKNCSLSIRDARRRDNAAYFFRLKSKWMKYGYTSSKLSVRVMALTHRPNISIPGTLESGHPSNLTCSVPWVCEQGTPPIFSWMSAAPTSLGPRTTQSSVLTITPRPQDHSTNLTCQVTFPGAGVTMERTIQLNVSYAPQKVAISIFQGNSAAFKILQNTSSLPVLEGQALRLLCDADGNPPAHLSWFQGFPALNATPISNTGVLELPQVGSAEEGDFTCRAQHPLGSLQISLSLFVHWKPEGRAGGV

[4] = molecular target: T3, Siglec-6 domain 1 fused to a human Fc; assay: ELISA on Siglec-6 domain-human Fc fusions (Domain Mapping = 2)
Description: as §1

T1 sequence (O43699 27-347): as the sequence (O43699 27-347 limits assumed) above

Molecule	Kd (Siglec-6 ECD Fc protein) [nM]	binding result [1]	binding result [2]	further results
R&D MAB2859 (antibody)	0.009	–	–	–
AK14 (antibody, V domains shown, also called anti-Siglec-6 mAb AK14) VH: QIQLVQSGPELKKPGETVKISCKASGYTFTTYGMSWVKQAPGKGLKWMGWINTYSGVPTYADDFKGRFAFSLETSATTAYLQINNLKNEDTATYFCARLAYFGYYFDFWGQGTTLTVSS VL: DIVMTQSQKFMSTTVGDRVSFTCKASQNVGSAVAWYQQKPGQSPKLLIYSASNRYTGVPDRFTGSGSGTDFTLTISNMQSEDLADYFCQQYSSYPYTFGGGTKLEIK	0.072	no binding	no binding	–
AK09 (antibody, V domains shown, also called anti-Siglec-6 mAb AK09) VH: QIQLVQSGPELKKPGETVKISCKASGYTLTTYGMSWVKQAPGKGLKWMGWINTYSGVPTYADEFKGRFAFSLETSASTAYLQINNLKNEDTATYFCARLGYYGYYFDYWGQGTTLTVSS VL: DVVLTQSPATLSVTPGDSVSLSCRASQSIRNNLHWYQQKSHESPRLLIKYIFQSISGIPSRFSGSGSGTEFTLSINSVETEDFGMYFCQQSDSWPHVTFGAGTKLELI	0.11	no binding	no binding	–
AK04 Reference Fab (Fab, V domains shown) VH: QVQLKESGPGLVAPSQSLSITCTVSGFSLTSYGVSWVRKPPGKGLEWLGVIWHDGSTSYHSTLISRLNISRDNSKSQVFLKLNSLQTDDTATYYCASDGYSGTFAYWGQGTLVTVSA VL: QIVVTQSPAIMSASLGERVTMTCTASSSVSSSYLHWYQQKPGSSPKLWIYSTSILASGVPARFSGSGSGTSYSLTVSSMEAEDAATYYCHQYHRSPYTFGGGSKLEIR	–	–	–	Kd [3]: 0.075 nM; koff [3]: 6.5e-05 s⁻¹; kon [3]: 860000 M⁻¹ s⁻¹
AK19 Fab (Fab, V domains shown) VH: QVQLQESGPGLVKPSETLSLTCTVSGFSLTSYGVSWIRQPPGKGLEWIGVIWHDGSTSYHSTLISRVTISRDTSKNQVSLKLSSVTAADTAVYYCASDGYSGTFAYWGQGTLVTVSS VL: QIVVTQSPATLSLSPGERATLSCTASSSVSSSYLHWYQQKPGQAPRLLIYSTSILASGIPARFSGSGSGTDFTLTISSLQPEDFAVYYCHQYHRSPYTFGQGTKLEIK	–	–	–	Kd [3]: 0.032 nM; koff [3]: 2.6e-05 s⁻¹; kon [3]: 830000 M⁻¹ s⁻¹
AK20 Fab (Fab, V domains shown) VH: QVQLQESGPGLVKPSETLSLTCTVSGFSLTSYGVSWIRQPPGKGLEWIGVIWHDGSTSYHPSLKSRVTISRDTSKNQVSLKLSSVTAADTAVYYCASDGYSGTFAYWGQGTLVTVSS VL: QIVVTQSPATLSLSPGERATLSCTASSSVSSSYLHWYQQKPGQAPRLLIYSTSILASGIPARFSGSGSGTDFTLTISSLQPEDFAVYYCHQYHRSPYTFGQGTKLEIK	–	–	–	Kd [3]: 0.12 nM; koff [3]: 9.1e-05 s⁻¹; kon [3]: 750000 M⁻¹ s⁻¹
AK21 Fab (Fab, V domains shown) VH: QVQLQESGPGLVKPSETLSLTCTVSGFSLSSYGVSWIRQPPGKGLEWIGVIWHDGSTNYNPSLKSRVTISRDTSKNQVSLKLSSVTAADTAVYYCASDGYSGTFAYWGQGTLVTVSS VL: QIVVTQSPATLSLSPGERATLSCTASSSVSSSYLHWYQQKPGQAPRLLIYSTSILASGIPARFSGSGSGTDFTLTISSLQPEDFAVYYCHQYHRSPYTFGQGTKLEIK	–	–	–	Kd [3]: 0.04 nM; koff [3]: 3.7e-05 s⁻¹; kon [3]: 920000 M⁻¹ s⁻¹
AK07 (antibody, V domains shown, also called anti-Siglec-6 mAb AK07) VH: EVQLQQSGPELVKPGASVKMSCKASGYTFTDYKMHWVKQSHGKSLEWIGNINPNNGGTSYNQKFKGKATLTVNKSSSTAYMELRSLTSEDSAVYYCARRYYGSSSSYFDYWGQGTTLTVSS VL: QIVLTQSPAIMSASPGEKVTMTCSVSSSVSYMHWYQQKSGTSPKRWIYDTSKLASGVPARFSGSGSGTSYSLTISSMEAEDAATYYCQQWSSNPPTFGAGTKLELK	0.069	–	–	–
AK15 (antibody, V domains shown, also called anti-Siglec-6 mAb AK15) VH: QVQLKESGPGLVAPSQSLSITCTVSGFSLTSYGVSWVRQPPGKGLEWLGIIWGDGSTNYHSALISRLSISKDKSKSQVFLKLNSLQADDTATYYCAKGLSDWYFDVWGTGTTVTVSS VL: QIVLSQSPAILSASPGEKVTMTCRASSSVSYMHWYQQKPGSSPKPWIYATSNLASGVPARFSGSGSGTSYSLTISRVEAEDAATYYCQQWSSNPYTFGGGTKLEIK	1.04	no binding	no binding	–
AK02 (antibody, V domains shown, also called anti-Siglec-6 mAb AK02) VH: QVQLQQPGAELVKPGASVKLSCKASGYTFTNYYIHWVKQRPGQGLEWIGMIHPISGSTNYNEKLKIKATLTVDKSSSTAYMQLSSLTSEDSAVYYCARRYYGSSYWYFDVWGTGTTVTVSS VL: QIVLSQSPAILSASPGEKVTMTCRASSSVSYMNWYQQKPGSSPKPWIYATSNLASGVPARFSGSGSGTPYSLTISRVEAEDAATYYCQQWSSHPPTFGSGTKLEIK	0.007	–	–	–
AK12 (antibody, V domains shown, also called anti-Siglec-6 mAb AK12) VH: QVQLKQSGPGLVQPSQSLSITCTVSGFSLTSYGVHWVRQSPGKGLEWLGVIWGGGSTDYNAGFISRLSISKDNSKSQVFFKMNSLQADDTAIYYCARALSDWYFDVWGTGTTVTVSS VL: QIVLSQSPAILSASPGEKVTMTCRASSSVSYMHWYQQKPGSSPKPWIYATSNLASGVPARFSGSGSGTSYSLTISRVEAEDAATYYCQQWSSNPLTFGAGTKLELK	0.087	no binding	no binding	–
AK03 (antibody, V domains shown, also called anti-Siglec-6 mAb AK03) VH: EVQLQQSGTVLARPGASVKMSCKTSGYTFTSYWMHWVKQRPGQGLEWIGTIYPGNSDSTYNQKFKGKAKLTAVTSASTAYMEVSSLTNEDSAVYYCSREGTVVANYYGLDYWGQGTSVTVSS VL: QIVLSQSPAILSASPGEKVTMTCRASSSVSYIHWYQQKPGSSPKPWIYATSNLASGVPARFSGSGSGTSYSLTISRVEAEDAATYYCQQWSSKPPTFGAGTKLELK	0.001	–	–	–
AK01 (antibody, V domains shown, also called anti-Siglec-6 mAb AK01) VH: QVQLKQSGPGLVQPSQSLSITCTVSGFSLTSYSVHWVRQSPGKGLEWLGVIWSGGSTDYNAVFISRLSISRDNSKSQVFFKMNSLQADDSAIYYCASYSYYTMDYWGQGTSVTVSS VL: DVVMTQTPLSLPVSLGDQASISCRSSQSLVLDNGNTYLHWYLQKPGQSPKLLIYKVSNRFSGVPDRFTGSGSGTDFTLKINRVEAEDLGVYFCSQSTHVPFTFGSGTKLEIK	0.001	–	–	–

Second part, led by results:

Kd (Siglec-6 ECD Fc protein) [nM]	binding result [1]	binding result [2]	Molecule	further results
0.063	no binding	no binding	AK13 (antibody, V domains shown, also called anti-Siglec-6 mAb AK13) VH: QIQLVQSGPELKKPGETVKISCKASGYTFTTYGMSWVKQAPGKGLKWMGWINTYSGVPTYADDFKGRFAFSLETSATTAYLQINNLKNEDTATYFCARLAYFGYYFDFWGQGTTLTVSS VL: DIVMTQSQKFMSTTVGDRVSFTCKASQNVGSAVTWYQQKPGQSPKLLIYSASNRYTGVPDRFTGSGSGTDFTLTISNMQSEDLADYFCQQYSSYPYTFGGGTKLEIK	–
0.001	–	–	AK04 (antibody, V domains shown, also called anti-Siglec-6 mAb AK04; AK04 IgG1) VH: QVQLKESGPGLVAPSQSLSITCTVSGFSLTSYGVSWVRKPPGKGLEWLGVIWHDGSTSYHSTLISRLNISRDNSKSQVFLKLNSLQTDDTATYYCASDGYSGTFAYWGQGTLVTVSA VL: QIVVTQSPAIMSASLGERVTMTCTASSSVSSSYLHWYQQKPGSSPKLWIYSTSILASGVPARFSGSGSGTSYSLTVSSMEAEDAATYYCHQYHRSPYTFGGGSKLEIR	–
0.024	–	–	AK06 (antibody, V domains shown, also called anti-Siglec-6 mAb AK06) VH: EVPLVESGGGLVKPGGSLKLSCAASGFTFSDYGIHWVRQAPEKGLEWVAYITSVSSTIYYADTVKGRFTISRDNAKNTLFLQMTSLRSEDTAMYYCAILDWYFDVWGTGTTVTVSS VL: QIVLTQSPAIMSASPGEKVTMTCSANSSVSFMHWFQQKSGTSPKRWIYDTSKLASGVPARFSASGSGTSYSLTISSMEAEDAATYYCQQWSSNPLTFGAGTKVELK	–
0.055	–	–	AK05 (antibody, V domains shown, also called anti-Siglec-6 mAb AK05) VH: QVQLQQPGTELVKPGASVQLSCKASGYIFTSYWMYWVKQRPGQGLEWIGNVNPYSGDTNYNEKFKTKATLTVDKASSTAFIQLSGLTSEDSAVYFCARGDGLYYYAMDYWGQGTSVTVSS VL: DIKMTQSPSSMYASLGERVTITCKASQDINSYLTWFQQKPGKSPKTLIYRASRLVDGVPSRFSGSGSGQDYSLTISSLEYEDMGIYYCLQYDEFPLTFGAGAKLELI	–
0.002	–	–	AK11 (antibody, V domains shown, also called anti-Siglec-6 mAb AK11) VH: EVMLVESGGGLVKPGGSLKLSCAASGFSFSTYVMSWVRQTPEKRLEWVASISGGGSNTYYPDSVKGRFTISRDNAKNTLYLQMSSLRSEDTALYYCARREVVVYWYFDVWGTGTTVTVSS VL: DIQMTQSPASLSVSVGETVTITCRASENIYSNLAWYQQKQGKSPQLLVFSAKNLADGVPSRFGGSGSGTQYSLKINSLQSEDFGTYYCQHFWGTPLTFGAGTKLELK	binding result [4]: no binding
0.261	no binding	no binding	AK08 (antibody, V domains shown, also called anti-Siglec-6 mAb AK08) VH: QVQLKESGPGLVAPSQSLSITCTVSGFSLTSYGVNWIRQPPGKGLEWLGVIWGDGSTNYHSALISRLSISKDNSKSQVFLKLNSLQTDDTATYYCAKALSDWYFDVWGTGTTVTVSS VL: QIVLSQSPAILSASPGEKVTMTCRASSSVSYMHWYQQKPGSSPKPWIYATSNLASGVPARFSGSGSGTSYSLTISRVEAEDAATYYCQQWSSNPYTFGGGTKLEIK	–
